Kd, koff and kon data for 13 molecules are collected here from patent publication US20220177596A1 (Bristol-Myers Squibb, published 2022).

Substitutions are numbered along the chain they refer to.

B1: humanized Y1238 hz31 (hz-HC7 / hz-LC1), IgG1.3f (antibody, V domains shown)
VH: QVQLVQSGAEVVKPGASVKVSCKASGYAFTNYLIEWVRQRPGQGLEWMGVINPGSGGTNYNEKFKGRVTMTADKSSSTAYMQLSRLRSDDTAVYFCARSQLGRRFDYWGQGTLVTVSS
VL: DIQMTQSPSSLSASVGDRVTITCKASQDVRTGVAWYQQKPGKAPKLLIYSASYRNTGVPSRFSGSGSGTDFTFTISSLQPEDIATYYCQQHYSPPYTFGGGTKVEIK
notes: IgG1.3f heavy constant, common CL; expression supernatant; also called Sup 31
B2: humanized Y1238 hz35 (hz-HC7 / hz-LC5), IgG1.3f (antibody, V domains shown)
VH: B1 VH
VL: B1 VL with K42Q, G66R, T85V
notes: IgG1.3f heavy constant, common CL; expression supernatant; also called Sup 35
B3: humanized Y1238 hz37 (hz-HC8 / hz-LC2), IgG1.3f (antibody, V domains shown)
VH: B1 VH with M70L
VL: B1 VL with G66R
notes: IgG1.3f heavy constant, common CL; expression supernatant; also called Sup 37
B4: humanized Y1238 hz34 (hz-HC7 / hz-LC4), IgG1.3f (antibody, V domains shown)
VH: B1 VH
VL: B1 VL with K42Q, A43S, G66R, P80A, T85V
notes: IgG1.3f heavy constant, common CL; expression supernatant; also called Sup 34
B5: humanized Y1238 hz41 (hz-HC9 / hz-LC1), IgG1.3f (antibody, V domains shown)
VH: B1 VH with M70L, L113T
VL: B1 VL
notes: IgG1.3f heavy constant, common CL; expression supernatant; also called Sup 41
B6: humanized Y1238 hz33 (hz-HC7 / hz-LC3), IgG1.3f (antibody, V domains shown)
VH: B1 VH
VL: B1 VL with K42Q, A43S, G66R, T85V
notes: IgG1.3f heavy constant, common CL; expression supernatant; also called Sup 33
B7: humanized Y1238 hz43 (hz-HC9 / hz-LC3), IgG1.3f (antibody, V domains shown)
VH: B1 VH with M70L, L113T
VL: B1 VL with K42Q, A43S, G66R, T85V
notes: IgG1.3f heavy constant, common CL; expression supernatant; also called Sup 43
B8: humanized Y1238 hz40 (hz-HC8 / hz-LC5), IgG1.3f (antibody, V domains shown)
VH: B1 VH with M70L
VL: B1 VL with K42Q, G66R, T85V
notes: IgG1.3f heavy constant, common CL; expression supernatant; also called Sup 40
B9: humanized Y1238 hz42 (hz-HC9 / hz-LC2), IgG1.3f (antibody, V domains shown)
VH: B1 VH with M70L, L113T
VL: B1 VL with G66R
notes: IgG1.3f heavy constant, common CL; expression supernatant; also called Sup 42
B10: humanized Y1238 hz39 (hz-HC8 / hz-LC4), IgG1.3f (antibody, V domains shown)
VH: B1 VH with M70L
VL: B1 VL with K42Q, A43S, G66R, P80A, T85V
notes: IgG1.3f heavy constant, common CL; expression supernatant; also called Sup 39
B11: humanized Y1238 hz32 (hz-HC7 / hz-LC2), IgG1.3f (antibody, V domains shown)
VH: B1 VH
VL: B1 VL with G66R
notes: IgG1.3f heavy constant, common CL; expression supernatant; also called Sup 32
B12: humanized Y1238 hz36 (hz-HC8 / hz-LC1), IgG1.3f (antibody, V domains shown)
VH: B1 VH with M70L
VL: B1 VL
notes: IgG1.3f heavy constant, common CL; expression supernatant; also called Sup 36
B13: humanized Y1238 hz38 (hz-HC8 / hz-LC3), IgG1.3f (antibody, V domains shown)
VH: B1 VH with M70L
VL: B1 VL with K42Q, A43S, G66R, T85V
notes: IgG1.3f heavy constant, common CL; expression supernatant; also called Sup 38

T1 sequence (P25942 21-193 limits assumed): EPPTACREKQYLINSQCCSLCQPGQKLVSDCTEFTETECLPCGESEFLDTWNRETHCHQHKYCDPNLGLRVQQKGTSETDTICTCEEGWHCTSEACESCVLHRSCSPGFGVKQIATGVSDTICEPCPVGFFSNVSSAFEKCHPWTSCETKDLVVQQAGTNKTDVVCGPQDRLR

This experiment concerns the target T1, human-CD40 monomer (human, UniProt P25942 21-193, limits assumed).
T1 construct: also called hCD40-monomer; human-CD40-monomer protein
Nature of the experiment: SPR 2 pt screen, Ab on protein A. As for the experimental part:
The VH sequences were formatted in the context of an IgG1.3f isotype. The Vκ sequences were formatted as a full light chain with a common CL sequence. All 55 combinations of these humanized HC and LC constructs, as well as the chimeric Y1238 molecule were expressed as 3 ml supernatants for binding analysis by SPR. Each of the 56 supernatants, as well as a purified Y1238-chimeric IgG1 antibody, was captured on a protein A sensor chip and tested for binding to two concentrations (i.e., 200 nM and 1000 nM) of hCD40-monomer using BIAcore™ SPR in a screening assay. All antibodies, except for those containing hz-HC3, captured at high levels (>300 RU) using a 100-fold dilution of the expression supernatant, indicating a high antibody titer in the supernatant except for the hz-HC3 samples. The kinetic data for the two concentrations of hCD40-monomer were fit to a 1:1 Langmuir model, to yield estimates of the kinetic and affinity values for these interactions, and for comparison of the different molecules. […] Also, for a given heavy chain, the antibodies with light chains hz-LC1 or hz-LC2 had higher CD40 affinity than those with hz-LC3, hz-LC4 or hz-LC5.
In general, Kd refers to the free concentration of one partner at which half of the binding sites on the other are occupied at equilibrium, for simple one-to-one binding. Broadly, the koff is a measure of how fast the partners let go of each other. What is called kon is the rate constant with which the complex forms. As to B1, the Kd stood at 3 nM, the koff was 0.00012 s⁻¹ and the kon is 39000 M⁻¹ s⁻¹.

As for B2, the equilibrium dissociation constant (Kd) is 9.2 nM, the off-rate constant (koff) came to 0.00037 s⁻¹ and the kon came out at 40000 M⁻¹ s⁻¹.

Turning to B3, the Kd came to 2.8 nM, the koff is 0.00011 s⁻¹ and the kon turned out to be 37000 M⁻¹ s⁻¹.

Take B4: the Kd stood at 7.1 nM, the off-rate constant (koff) amounted to 0.00028 s⁻¹ and the kon was determined as 40000 M⁻¹ s⁻¹.

Regarding B5, the Kd came to 4.4 nM, the koff was found to be 0.00017 s⁻¹ and the on-rate constant (kon) turned out to be 38000 M⁻¹ s⁻¹.

Turning to B6, the Kd came to 8.7 nM, the koff stood at 0.00035 s⁻¹ and the kon was 40000 M⁻¹ s⁻¹.

Consider B7, for which the Kd worked out at 7.6 nM, the koff is 0.00029 s⁻¹ and the kon turned out to be 39000 M⁻¹ s⁻¹.

In the case of B8, the Kd came out at 6.5 nM, the koff was found to be 0.00026 s⁻¹ and the kon turned out to be 39000 M⁻¹ s⁻¹.

For B9, the Kd worked out at 5.4 nM, the koff is 0.0002 s⁻¹ and the on-rate constant (kon) was found to be 36000 M⁻¹ s⁻¹.

On to B10, for which the Kd came to 7.5 nM, the koff was 0.0003 s⁻¹ and the kon amounted to 40000 M⁻¹ s⁻¹.

Regarding B11, the Kd was determined as 4.5 nM, the koff is 0.00017 s⁻¹ and the kon came out at 37000 M⁻¹ s⁻¹.

As to B12, the Kd came out at 3.7 nM, the koff came out at 0.00014 s⁻¹ and the kon stood at 39000 M⁻¹ s⁻¹.

As to B13, the Kd was 8.2 nM, the koff is 0.00032 s⁻¹ and the kon was found to be 39000 M⁻¹ s⁻¹.
